Assay results reported in paper PMC8631942.

Columns and labels:
SHP1 = SHP1 (UniProt P29350); experiment: GFP-Trap co-IP, SHP1 blot; details: reference: BTLA wild type
SHP2 = SHP2 (UniProt Q06124); experiment: GFP-Trap co-IP, SHP2 blot; details: reference: BTLA wild type

BTLA (from UniProt Q7Z6A9) BTLAYYYF (Y282F)
binding against the reference (SHP1; sites Y282): lost
binding against the reference (SHP2; sites Y282): lost

BTLA (from UniProt Q7Z6A9) BTLAYYFY (Y257F)
binding against the reference (SHP1; sites Y257): lost
binding against the reference (SHP2; sites Y257): lost
